Like-named read-outs stand apart in the source and are kept apart here.
Key:
[1] = molecular target: T1, T4 DNA ligase (Enterobacteria phage T4?) (UniProt P00970)
T1 sequence: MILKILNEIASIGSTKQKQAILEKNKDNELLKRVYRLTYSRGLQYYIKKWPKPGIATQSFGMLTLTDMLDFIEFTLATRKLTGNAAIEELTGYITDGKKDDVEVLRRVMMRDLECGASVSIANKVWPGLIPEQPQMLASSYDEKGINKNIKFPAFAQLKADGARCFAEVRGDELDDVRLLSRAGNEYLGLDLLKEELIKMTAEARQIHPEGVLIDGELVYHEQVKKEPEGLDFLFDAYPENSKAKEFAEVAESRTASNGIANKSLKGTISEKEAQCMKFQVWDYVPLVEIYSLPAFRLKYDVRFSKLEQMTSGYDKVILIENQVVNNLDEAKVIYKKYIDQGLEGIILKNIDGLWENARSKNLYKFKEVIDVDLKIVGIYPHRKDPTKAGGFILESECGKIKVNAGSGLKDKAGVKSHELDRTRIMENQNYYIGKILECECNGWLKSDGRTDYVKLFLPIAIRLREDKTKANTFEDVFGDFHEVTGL

[2] = molecular target: T1, T4 DNA ligase (Enterobacteria phage T4?); conditions: 5'-phosphate, 25 C
SapI = molecular target: T2, SapI (UniProt O52712); assay: cleavage_in_vitro; conditions: SapI digestion giving 3-base overhang
T2 sequence: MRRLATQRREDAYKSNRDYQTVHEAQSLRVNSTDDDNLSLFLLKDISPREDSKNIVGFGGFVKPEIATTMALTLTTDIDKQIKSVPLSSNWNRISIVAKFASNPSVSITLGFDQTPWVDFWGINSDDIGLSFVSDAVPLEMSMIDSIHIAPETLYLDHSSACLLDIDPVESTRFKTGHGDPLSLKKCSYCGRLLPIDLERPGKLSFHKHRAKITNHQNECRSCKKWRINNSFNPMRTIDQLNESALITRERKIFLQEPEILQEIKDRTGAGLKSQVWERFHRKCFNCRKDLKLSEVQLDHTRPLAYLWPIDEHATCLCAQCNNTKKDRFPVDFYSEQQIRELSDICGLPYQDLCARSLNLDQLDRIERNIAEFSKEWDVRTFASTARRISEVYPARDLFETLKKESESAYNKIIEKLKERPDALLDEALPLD

GNN/TNN mismatch overhang substrate
relative ligation rate (fold faster than TNN/GNN) ([1]; ligation of edge G:T mismatch): 80

NNNCGAAGAGCTGCGATCCAGTGCGCCGTGCATTGATCAACGCAANNNNNNATCTCTCTCTTTTCCTCCTCCTCCGTTGTTGTTGTTGAGAGAGATNNNNNNTTGCGTTGATCAATGCACGGCGCACTGGATCGCAGCTCTTCG [AAA 3-base overhang substrate]
binding signal ([2]; correct ligations 1403.8 x10-5): 99.2 % fidelity

NNNCGAAGAGCTGCGATCCAGTGCGCCGTGCATTGATCAACGCAANNNNNNATCTCTCTCTTTTCCTCCTCCTCCGTTGTTGTTGTTGAGAGAGATNNNNNNTTGCGTTGATCAATGCACGGCGCACTGGATCGCAGCTCTTCG [GGC 3-base overhang substrate]
binding signal ([2]; correct ligations 864.7 x10-5): 53.6 % fidelity

NNNCGAAGAGCTGCGATCCAGTGCGCCGTGCATTGATCAACGCAANNNNNNATCTCTCTCTTTTCCTCCTCCTCCGTTGTTGTTGTTGAGAGAGATNNNNNNTTGCGTTGATCAATGCACGGCGCACTGGATCGCAGCTCTTCG [TAA 3-base overhang substrate]
binding signal ([2]; correct ligations only 209.0 x10-5): 98.6 % fidelity

TCAGGTNNNCGAAGAGCTGCGATCCAGTGCGCCGTGCATTGATCAACGCAANNNNNNATCTCTCTCTTTTCCTCCTCCTCCGTTGTTGTTGTTGAGAGAG [ligation library precursor (extended)]
activity (SapI): > 95 % cut

TNN/GNN mismatch overhang substrate
relative ligation rate (relative to GNN/TNN) ([1]; stated as about 80-fold slower than 5'-G mismatch): 0.0125

From patent US20220098577
